The text below walks through data of US8419708B2, “Transdermal drug administration apparatus having microneedles” (Hisamitsu Pharmaceuticals Co., Inc., priority 2006, dated 2013).

What all share (assay type): in vitro ADME, hairless mice
Data set [1] in a line: Skin permeation with calcein sodium coating and dissolving solution in combination. The method, then:
A transdermal drug administration apparatus having microneedles of FIG. 9 was used. 70 mg of calcein sodium as a drug was mixed with 930 μL of a 5% aqueous polymer (polyvinyl pyrrolidone, dextran) solution. The whole surface of microneedles was coated with 25 μL of the solution. The applied solution was dried at room temperature for 12 hours. Moreover, no polymer was added to a coating agent containing only water.
(§1) To measure the amount of permeation, the skin was ablated from the trunks of hairless mice and attached to vertical acrylic cells (2.54 cm^2) with the dermis facing a receptor layer. The cells were loaded in a thermostat set to 37° C. The transdermal drug administration apparatus having microneedles of the present invention was affixed to the stratum corneum. Sampling was conducted at a speed of 5.5 mL/hr. after 1 hour and 2 hours and subsequently at 2-hour intervals until the 6th hour. A phosphate-buffered saline (PBS) was used in the receptor layer. A drug content in the receptor solution obtained each time was measured with a fluorophotometer (excitation: 485, fluorescence: 538).
(§2) Animal type: hairless mice (n=3)
(§3) Receptor solution: 4 mL of PBS (Sampling volume: 200 μL/time)
(§4) Area: 2.54 cm^2 (however, the M.N substrate itself is 1 cm^2)
(§5) Dissolving solution: a saline was added dropwise from a dissolving solution reservoir.

Data set [2] can be described thus: Skin permeation with drug-coated microneedles and dissolving solution in combination (vertical acrylic cells). The following applies: FIG. 12. The method, then: A transdermal drug administration apparatus having microneedles of FIG. 9 was used. 30% aqueous solution was prepared with 100 mg of BSA (bovine serum albumin) and […] of FITC-BSA (fluorescently labeled bovine serum albumin) as drugs and 350 μL of water and used as a mother liquid to prepare 10% and 20% aqueous solutions. The whole surface of microneedles was coated with each of the prepared 10 to 30% aqueous solutions in an amount of 30 μL/patch. The applied solution was dried at room temperature for 12 hours to prepare 3 kinds in total of coated microneedles (→3 mg/patch, 6 mg/patch, and 9 mg/patch) (FIG. 12).
The drug injection models used as controls are shown (FIG. 13), 15 μL of a 20% aqueous drug (FITC-BSA) solution was added to a dissolving solution without coating microneedles with the drug, and after coating with a 5% aqueous PVA203 solution in an amount of 30 μL/patch, the drug was added.
as §1, with “8th” for “6th”
as §2, §3, §4, §5
PVA203: polyvinyl alcohol (partially saponified, polymerization degree: 300, KURARAY CO., LTD.)

Data set [3] can be described thus: Skin permeation with drug coating-water-soluble polymer and dissolving solution in combination. The following applies: FIG. 14; for skin permeability: 20 μL dissolving solution in combination. The method, then: A transdermal drug administration apparatus having microneedles of FIG. 9 was used. 400 mg of BSA (bovine serum albumin) and 400 mg of FITC-BSA (fluorescently labeled bovine serum albumin) as drugs were dissolved in 5 mL of water. Likewise, 800 mg of a polymer (PEO, PVA117) was dissolved in 5 mL of water. Both of the solutions were mixed in equal amounts to prepare a coating solution. The whole surface of microneedles was coated with 25 μL of the coating solution. The applied solution was dried with a drier for 30 minutes. Moreover, no polymer was added to a coating agent containing only water.
as §1, with “8th” for “6th”, “496,” for “485,”, “517).” for “538).”
as §2
Receptor solution: 4 mL of PBS (Sampling volume: 500 μL/time)
as §4, §5
PEO: polyethylene oxide (molecular weight: 900,000, concentration: 2.5%)
PVA117S: polyvinyl alcohol (completely saponified, KURARAY CO., LTD.)

Consider `O=C(O)CN(CC(=O)O)Cc1cc2c(cc1O)Oc1cc(O)c(CN(CC(=O)O)CC(=O)O)cc1C21OC(=O)c2ccccc21` [calcein sodium], for which the “permeability-promoting effects by dropwise addition of the dissolving solution” value in data set [1] (dextran used in the coating) is given as “promoting effects were also observed”; in data set [1] (polyvinyl pyrrolidone used in the coating), “promoting effects were also observed”; in data set [1] (regardless of the presence or absence of the polymer in the coating, FIGS. 15-17), “Permeability-promoting effects were observed”.

“FITC-BSA: fluorescently labeled bovine serum albumin, used as model drug in the microneedle coating (mixed with BSA)”: the “effect of using the dissolving solution in combination” value in data set [2] (amount of drug coating 3 mg (of 3, 6 and 9 mg), dissolving solution fixed to 20 μL) is “highest”. Moreover, the “synergistic effect brought about by the dissolving solution” value in data set [2] (amount of drug coating 9 mg, dissolving solution fixed to 20 μL) is reported as “no synergistic effect”. For the same compound, the skin permeability result in data set [2] (drug-coated microneedles, 20 μL dissolving solution (saline) used in combination) is recorded as “increased”; in data set [3] (only water, no polymer in coating composition), “increased”; in data set [3] (polyethylene oxide (molecular weight 900,000) mixed into coating composition), “increased”. In addition, in data set [3] (poorly soluble polymer PVA117 mixed into coating composition), the “skin permeability-promoting effects brought about by the addition of the dissolving solution” value is given as “no skin permeability-promoting effects”.
